Literature values, collected in patent US20080160019A1, “SEQUENTIAL COMBINATION THERAPY” (DYAX CORP., priority 2006, published 2008).

Biological target: Tie1 (Homo sapiens, UniProt P35590)
Sequence (P35590 22-1138): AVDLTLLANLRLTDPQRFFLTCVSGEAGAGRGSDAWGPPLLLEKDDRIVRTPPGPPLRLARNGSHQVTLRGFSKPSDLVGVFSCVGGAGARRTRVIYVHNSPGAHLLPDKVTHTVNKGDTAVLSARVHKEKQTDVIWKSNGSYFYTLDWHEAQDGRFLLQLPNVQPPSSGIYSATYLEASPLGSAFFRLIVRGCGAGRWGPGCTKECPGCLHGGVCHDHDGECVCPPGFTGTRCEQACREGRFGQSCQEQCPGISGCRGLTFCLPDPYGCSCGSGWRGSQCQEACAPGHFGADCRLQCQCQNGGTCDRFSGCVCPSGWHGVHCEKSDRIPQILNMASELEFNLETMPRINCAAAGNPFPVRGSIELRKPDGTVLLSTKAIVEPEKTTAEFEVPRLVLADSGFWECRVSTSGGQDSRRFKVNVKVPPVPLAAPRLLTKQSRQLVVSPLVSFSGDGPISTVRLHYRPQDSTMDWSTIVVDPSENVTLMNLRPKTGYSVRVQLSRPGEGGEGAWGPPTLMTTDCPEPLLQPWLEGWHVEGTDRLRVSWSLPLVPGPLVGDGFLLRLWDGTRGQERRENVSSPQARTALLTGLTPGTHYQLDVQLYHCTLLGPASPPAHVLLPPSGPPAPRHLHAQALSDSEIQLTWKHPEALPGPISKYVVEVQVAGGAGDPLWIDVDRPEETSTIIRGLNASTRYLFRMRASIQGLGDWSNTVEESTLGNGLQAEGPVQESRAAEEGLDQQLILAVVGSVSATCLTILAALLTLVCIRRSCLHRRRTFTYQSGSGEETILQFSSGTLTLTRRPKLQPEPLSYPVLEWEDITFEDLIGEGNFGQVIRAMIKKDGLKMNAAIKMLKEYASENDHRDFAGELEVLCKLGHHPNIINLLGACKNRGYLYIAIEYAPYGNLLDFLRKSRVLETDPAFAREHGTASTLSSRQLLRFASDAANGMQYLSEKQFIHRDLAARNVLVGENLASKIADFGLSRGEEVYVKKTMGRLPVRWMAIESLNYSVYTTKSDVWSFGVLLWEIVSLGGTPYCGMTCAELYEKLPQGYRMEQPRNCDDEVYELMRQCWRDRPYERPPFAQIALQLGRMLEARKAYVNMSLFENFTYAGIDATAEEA

B1: M0044-B08: Tie1 ectodomain-binding antibody, variable domains SEQ ID NO:2 and 4 (antibody, listed as Homo sapiens, V domains shown)
VL: QDIQMTQSPSFLSASVGDRVTISCRASQYISIYLNWYQQRPGEAPKLLINAASSLQSGDPSRFSGSGSGTDFTLTINSLQPDDFATYYCQQYKSYPLTFGEGTKVEIK
VH: EVQLLESGGGLVQPGGSLRLSCAASGFTFSAYGMGWVRQAPGKGLEWVSVISPSGGQTSYADSVKGRFTISRDNSKNTLYLQMNSLRAEDTALYYCAGGDRYGPLHYWGQGTLVTVSS
induce: Tie1 tyrosine phosphorylation | Tie complex formation | down modulation of Tie1 from the cell surface
